Reference: patent US20210079107A1 (Novartis, published 2021)
Several values for one entry are separate records, joined by “and”; a condition that tells them apart may be missing. Identical values can stand only once.

What was measured:
[1] = target: T1, recombinant human CD40 (human, UniProt P25942 21-193); experiment: SPR (Biacore T100), antibody captured on Protein A, CD40 as analyte, 25 °C, 1:1 model
T1 construct: Soluble analyte in SPR; also called CD40 antigen
Text: A typical binding analysis cycle consisted of three steps: (i) capture of the antibody via ProteinA immobilized on the chip surface, (ii) binding of CD40 antigen to the captured anti-CD40 antibody, and (iii) regeneration of the ProteinA surface. To determine the kinetic rate constants of the antigen-antibody binding interactions, binding data were processed, double referenced with responses from blank injections. The binding curves were fitted locally using the 1:1 interaction model of the Biacore T100 Evaluation software to determine kinetic rate constants. The value for the equilibrium dissociation constant (KD) was calculated as the ratio of the rate constants kd/ka. All binding measurements were performed in two independent experiments.

[2] = target: T2, human FcγRIIIA 158F extracellular domain (human, UniProt P08637 17-199, site directed biotinylated with BirA (Avi tag)); experiment: SPR (T100), biotinylated receptor on streptavidin chip, equilibrium binding, 1:1 model
T2 construct: range 17-199; not shown: 4-amino acid purification tag (4APP; Novartis)
T2 sequence (P08637 other isoform, or with tags, fused parts or gaps): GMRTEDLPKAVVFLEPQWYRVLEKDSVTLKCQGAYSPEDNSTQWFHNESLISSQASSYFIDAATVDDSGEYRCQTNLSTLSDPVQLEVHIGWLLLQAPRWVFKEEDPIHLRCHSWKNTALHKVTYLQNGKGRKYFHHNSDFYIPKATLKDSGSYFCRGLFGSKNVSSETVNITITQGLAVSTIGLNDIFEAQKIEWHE
Text: (§1) Extracellular domains of human FcγRIIIA tagged with a 4-amino acid purification tag (4APP; Novartis) and an Avi biotinylation tag ([…]; Avidity) were synthesized by Geneart: human FcγRIIIA (CD16a) 158V (Uniprot: P08637, 17-199), human FcγRIIIA 158F (Uniprot: P08637, 17-199), expressed in HEK293 cells and purified with anti-4APP affinity chromatography. Receptors were site directed biotinylated with BirA (Avidity), bound to streptavidin sensor chips (General Electric), and the equilibrium-binding levels of the different Abs were analyzed by surface plasmon resonance (T100, General Electric) as described (Warncke et al. 2012). Equilibrium dissociation constants (KD) were calculated by a 1:1 model.

[3] = target: T3, human CD40 on cells (CD20+ B cells of whole blood/PBMCs, tonsil B cells, moDCs, RI-1 B cell line) (human, UniProt P25942 21-277); experiment: cell-based or functional assay
T3 sequence (P25942 21-277 limits assumed): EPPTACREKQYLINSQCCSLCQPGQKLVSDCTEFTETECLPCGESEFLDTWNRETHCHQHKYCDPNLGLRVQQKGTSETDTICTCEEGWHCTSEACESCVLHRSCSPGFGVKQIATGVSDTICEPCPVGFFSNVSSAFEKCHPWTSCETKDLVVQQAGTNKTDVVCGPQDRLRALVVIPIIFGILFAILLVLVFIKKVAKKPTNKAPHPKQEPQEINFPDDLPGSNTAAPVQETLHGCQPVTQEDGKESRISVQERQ

[4] = target: T3, human CD40 on cells (CD20+ B cells of …); experiment: cell-based or functional assay; remark: listed apart in the source
[5] = target: T4, rhesus monkey CD40 on CD20+ B cells (rhesus, UniProt F6SNI1 21-278); experiment: cell-based or functional assay
[6] = target: T5, cynomolgus monkey CD40 on CD20+ B cells (cynomolgus, UniProt G7PG38 21-278); experiment: cell-based or functional assay
[7] = target: T3, human CD40 on cells (CD20+ B cells of …); experiment: cell-based or functional assay; remark: listed apart in the source
[8] = target: T6, human FcγRIIIA (CD16a) 158V extracellular domain (human, UniProt P08637 17-199, site directed biotinylated with BirA (Avi tag)); experiment: SPR, biotinylated receptor on streptavidin chip, equilibrium binding
T6 construct: range 17-199; 158 is the usual mature numbering of the V/F allotype; also called Human FcγRIIIA 158V; not shown: 4-amino acid purification tag (4APP; Novartis)
T6 sequence (P08637 other isoform, or with tags, fused parts or gaps): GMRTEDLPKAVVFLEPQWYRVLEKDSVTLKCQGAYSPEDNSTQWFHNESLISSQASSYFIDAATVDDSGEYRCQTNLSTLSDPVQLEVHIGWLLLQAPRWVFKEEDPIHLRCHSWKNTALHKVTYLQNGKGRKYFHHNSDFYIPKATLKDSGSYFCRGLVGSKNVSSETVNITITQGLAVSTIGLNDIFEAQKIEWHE
Text: as §1

[9] = target: T2, human FcγRIIIA 158F extracellular domain; experiment: as above
Text: as §1

[10] = target: T3, human CD40 on cells (CD20+ B cells of …); experiment: flow cytometry, CD40 occupancy by CFZ533 (MFI EC50 on CD20+ cells), human, n = 4
[11] = target: T4, rhesus monkey CD40 on CD20+ B cells; experiment: flow cytometry, CD40 occupancy by CFZ533 (MFI EC50 on CD20+ cells), rhesus, n = 6
[12] = target: T5, cynomolgus monkey CD40 on CD20+ B cells; experiment: flow cytometry, CD40 occupancy by CFZ533 (MFI EC50 on CD20+ cells), cynomolgus, n = 4
[13] = target: T3, human CD40 on cells (CD20+ B cells of …); experiment: flow cytometry, CD40 occupancy by CFZ533 (MFI EC50 on CD20+ cells), human, n = 4; human CD20+ cells, n = 4

T1 sequence (P25942 21-193 limits assumed): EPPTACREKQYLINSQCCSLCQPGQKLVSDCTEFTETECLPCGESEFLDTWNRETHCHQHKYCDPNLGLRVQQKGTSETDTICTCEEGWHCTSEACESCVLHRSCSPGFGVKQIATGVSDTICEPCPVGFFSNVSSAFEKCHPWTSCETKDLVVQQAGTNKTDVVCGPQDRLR

| Binder | Kd [1] [nM] | koff [1] [s⁻¹] | kon [1] [M⁻¹ s⁻¹] | Ka [2] [M⁻¹] | IC50, rCD154-induced TNF production by primary monocyte-derived dendritic cells (moDCs) [3] | IC50, rCD154-induced proliferation of human whole blood cultures [3] | IC50, rCD154-induced proliferation of purified tonsillar B cells [3] | Inhibition of rCD154-induced proliferation (IC50 PBMCs) [4] [µg/mL] | Inhibition of rCD154-induced proliferation (IC50 PBMCs) [5] [µg/mL] | Inhibition of rCD154-induced proliferation (IC50 PBMCs) [6] [µg/mL] | IC50 (read off the curve): rCD154-induced CD69 expression on CD20pos B cells, human whole blood [7] [µg/mL] | binding result [8] | binding result [9] | EC50 [10] [µg/mL] | EC50 [11] [µg/mL] | EC50 [12] [µg/mL] | EC50 [13] [nM] |
| --- | --- | --- | --- | --- | --- | --- | --- | --- | --- | --- | --- | --- | --- | --- | --- | --- | --- |
| HCD122 (wild-type IgG1 version of CFZ533) (antibody, it calls it the parental antibody and the wild-type IgG1 version of CFZ533 (N297A IgG1); It is built here as the CFZ533 chains with Asn in place of the Ala of N297A; 297 is a constant-region number; also called parental antibody) heavy: not shown light: DIVMTQSPLSLTVTPGEPASISCRSSQSLLYSNGYNYLDWYLQKPGQSPQVLISLGSNRASGVPDRFSGSGSGTDFTLKISRVEAEDVGVYYCMQARQTPFTFGPGTKVDIRRTVAAPSVFIFPPSDEQLKSGTASVVCLLNNFYPREAKVQWKVDNALQSGNSQESVTEQDSKDSTYSLSSTLTLSKADYEKHKVYACEVTHQGLSSPVTKSFNRGEC | 0.467 | 0.000126 | 284000 | 699000 |  |  |  |  |  |  |  |  |  |  |  |  |  |
| CFZ533 (antibody, human IgG1, kappa, N297A, In the receptor occupancy and internalisation assays it was labelled with AlexaFluor 488; also called mAb1; iscalimab) heavy: not shown light: DIVMTQSPLSLTVTPGEPASISCRSSQSLLYSNGYNYLDWYLQKPGQSPQVLISLGSNRASGVPDRFSGSGSGTDFTLKISRVEAEDVGVYYCMQARQTPFTFGPGTKVDIRRTVAAPSVFIFPPSDEQLKSGTASVVCLLNNFYPREAKVQWKVDNALQSGNSQESVTEQDSKDSTYSLSSTLTLSKADYEKHKVYACEVTHQGLSSPVTKSFNRGEC | 0.305 | 9.3e-05 | 313000 |  | 0.04 µg/ml and 0.27 nM | 0.024 µg/ml and 0.16 nM | 0.47 nM and 0.071 µg/ml | 0.017 | 0.026 | 0.01 | ~0.1 | no binding | no binding | 0.22 | 0.22 | 0.2 | 1.49 |
